Data on four substances can be found in patent publication US20180119164A1.

What all share (experiment): cell-based or functional assay
Assay [1] addresses Env of HIV pseudovirus DU422.1 (HIV strain DU422.1).
Assay [2] deals with Env of HIV pseudovirus ZM214M (HIV strain ZM214M).
For assay [3], the target named is Env of HIV pseudovirus MN (HIV strain MN) (UniProt P05877).
Assay [4] concerns the target Env of HIV pseudovirus DU156.12 (HIV strain DU156.12).
The target of assay [5] is Env of HIV pseudovirus CAP45 (HIV strain CAP45).
Assay [6] addresses Env of HIV pseudovirus ADA (HIV strain ADA).
Assay [7] addresses Env of HIV pseudovirus TRO.11 (HIV strain TRO.11).
The target of assay [8] is Env of HIV pseudovirus PVO (HIV strain PVO).
For assay [9], the target named is Env of HIV pseudovirus JRCSF (HIV strain JRCSF) (UniProt P20871).
The target of assay [10] is Env of HIV pseudovirus JRFL (HIV strain JRFL).
The target in assay [11] is Env of HIV pseudovirus YU2 (HIV strain YU2) (UniProt P35961).
Chain of UniProt P35961 (P35961 32-843 limits assumed): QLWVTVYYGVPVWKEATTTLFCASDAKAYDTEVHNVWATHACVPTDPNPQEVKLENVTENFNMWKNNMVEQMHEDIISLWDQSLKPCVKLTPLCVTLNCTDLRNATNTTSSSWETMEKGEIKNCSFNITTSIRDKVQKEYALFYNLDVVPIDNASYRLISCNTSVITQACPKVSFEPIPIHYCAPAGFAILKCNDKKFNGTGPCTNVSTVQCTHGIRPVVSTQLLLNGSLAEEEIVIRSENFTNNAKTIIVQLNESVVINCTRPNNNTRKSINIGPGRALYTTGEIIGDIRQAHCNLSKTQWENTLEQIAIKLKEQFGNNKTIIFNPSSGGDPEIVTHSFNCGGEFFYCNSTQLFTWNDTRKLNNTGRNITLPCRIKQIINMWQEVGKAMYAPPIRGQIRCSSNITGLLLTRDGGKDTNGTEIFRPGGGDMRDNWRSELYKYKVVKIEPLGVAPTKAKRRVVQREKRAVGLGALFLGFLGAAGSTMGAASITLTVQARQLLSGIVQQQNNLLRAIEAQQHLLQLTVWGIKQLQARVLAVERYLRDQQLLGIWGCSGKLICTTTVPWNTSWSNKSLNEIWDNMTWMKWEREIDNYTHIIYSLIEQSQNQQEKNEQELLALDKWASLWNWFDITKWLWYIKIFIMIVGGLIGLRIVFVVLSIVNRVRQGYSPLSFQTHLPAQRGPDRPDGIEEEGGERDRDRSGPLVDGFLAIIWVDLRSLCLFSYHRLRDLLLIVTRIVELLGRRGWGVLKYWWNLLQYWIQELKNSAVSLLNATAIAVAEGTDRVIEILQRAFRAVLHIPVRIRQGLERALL

Chain of UniProt P05877 (P05877 32-856 limits assumed): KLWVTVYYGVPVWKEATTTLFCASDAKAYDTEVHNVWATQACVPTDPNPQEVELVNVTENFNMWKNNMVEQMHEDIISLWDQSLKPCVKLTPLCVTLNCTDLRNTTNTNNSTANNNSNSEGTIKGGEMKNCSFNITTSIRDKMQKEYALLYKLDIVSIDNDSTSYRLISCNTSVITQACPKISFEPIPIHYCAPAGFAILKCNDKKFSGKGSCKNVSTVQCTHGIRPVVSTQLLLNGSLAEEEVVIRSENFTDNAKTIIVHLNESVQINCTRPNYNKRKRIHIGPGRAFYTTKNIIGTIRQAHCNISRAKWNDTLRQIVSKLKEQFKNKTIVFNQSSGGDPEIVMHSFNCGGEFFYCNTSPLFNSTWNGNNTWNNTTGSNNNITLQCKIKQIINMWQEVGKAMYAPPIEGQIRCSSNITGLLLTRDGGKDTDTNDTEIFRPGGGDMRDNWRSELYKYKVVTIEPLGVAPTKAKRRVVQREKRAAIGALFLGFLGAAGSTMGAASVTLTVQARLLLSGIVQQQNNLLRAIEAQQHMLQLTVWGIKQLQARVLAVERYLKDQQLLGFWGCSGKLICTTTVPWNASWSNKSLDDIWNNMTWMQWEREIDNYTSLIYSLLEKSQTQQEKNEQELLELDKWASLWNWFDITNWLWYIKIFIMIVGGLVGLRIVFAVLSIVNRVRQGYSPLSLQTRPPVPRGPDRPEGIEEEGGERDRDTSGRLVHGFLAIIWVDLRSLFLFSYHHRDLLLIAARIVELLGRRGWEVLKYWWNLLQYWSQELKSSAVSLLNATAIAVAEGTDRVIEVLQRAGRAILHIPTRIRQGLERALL
Chain of UniProt P20871 (P20871 32-848 limits assumed): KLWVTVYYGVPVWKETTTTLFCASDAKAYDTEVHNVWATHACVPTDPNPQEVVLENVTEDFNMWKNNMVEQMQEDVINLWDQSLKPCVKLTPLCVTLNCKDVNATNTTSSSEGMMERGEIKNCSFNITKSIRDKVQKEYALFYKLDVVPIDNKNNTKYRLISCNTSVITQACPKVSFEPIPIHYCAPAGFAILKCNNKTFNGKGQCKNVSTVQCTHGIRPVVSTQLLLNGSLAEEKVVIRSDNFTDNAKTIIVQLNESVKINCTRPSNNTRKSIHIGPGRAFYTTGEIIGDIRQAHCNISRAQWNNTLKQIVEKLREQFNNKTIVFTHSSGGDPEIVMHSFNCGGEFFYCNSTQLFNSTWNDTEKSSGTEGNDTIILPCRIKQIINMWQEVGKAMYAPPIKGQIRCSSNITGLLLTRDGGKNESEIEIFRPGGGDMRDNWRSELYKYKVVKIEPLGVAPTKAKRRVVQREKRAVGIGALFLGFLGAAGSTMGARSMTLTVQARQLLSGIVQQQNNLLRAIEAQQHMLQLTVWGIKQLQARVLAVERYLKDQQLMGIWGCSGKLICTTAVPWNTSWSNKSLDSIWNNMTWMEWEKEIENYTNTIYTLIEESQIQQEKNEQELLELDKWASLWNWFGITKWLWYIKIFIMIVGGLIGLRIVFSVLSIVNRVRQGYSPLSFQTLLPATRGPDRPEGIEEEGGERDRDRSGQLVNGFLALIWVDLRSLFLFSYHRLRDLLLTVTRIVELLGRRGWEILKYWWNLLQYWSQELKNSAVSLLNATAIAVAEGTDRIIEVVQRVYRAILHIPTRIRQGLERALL

As to ^ΔXFPG9 (antibody), the IC50, pseudovirus neutralization (TZM-bl luciferase) in [1] is over 50 mg/L; in assay [2], over 50 mg/L; in assay [3] it was over 50 mg/L; in assay [4], over 50 mg/L; in [5], 0.65 mg/L; in assay [6] it was over 50 mg/L. The IC50, pseudovirus neutralization (TZM-bl luciferase) in [7] was over 50 mg/L; in assay [8], over 50 mg/L; in assay [9], 0.19 mg/L; in [10], over 50 mg/L; in assay [11], over 50 mg/L.

Turning to ^CHOPG9 (antibody), the IC50, pseudovirus neutralization (TZM-bl luciferase) was 10.9 mg/L in assay [1]; over 50 mg/L in assay [2]; over 50 mg/L in assay [3]; 0.35 mg/L in assay [4]; under 0.02 mg/L in assay [5]; 42.8 mg/L in assay [6]. For the same substance, the IC50, pseudovirus neutralization (TZM-bl luciferase) in assay [7] is over 50 mg/L; in assay [8], over 50 mg/L; in [9], under 0.02 mg/L; in assay [10], over 50 mg/L; in assay [11], over 50 mg/L.

Consider ^ΔXFPG9SulfSia (antibody), for which the IC50, pseudovirus neutralization (TZM-bl luciferase) was 6.6 mg/L in [1]; over 50 mg/L in [2]; over 50 mg/L in assay [3]; 0.9 mg/L in [4]; under 0.02 mg/L in [5]; 40.2 mg/L in [6]. The IC50, pseudovirus neutralization (TZM-bl luciferase) is over 50 mg/L in assay [7]; over 50 mg/L in [8]; 0.03 mg/L in assay [9]; over 50 mg/L in [10]; over 50 mg/L in assay [11].

Take ^ΔXFPG9Sulf (antibody): the IC50, pseudovirus neutralization (TZM-bl luciferase) in assay [1] is 14.3 mg/L; in [2], over 50 mg/L; in assay [3], over 50 mg/L; in assay [4], 1.2 mg/L; in assay [5], 0.03 mg/L; in assay [6], 37.4 mg/L. The IC50, pseudovirus neutralization (TZM-bl luciferase) in assay [7] is over 50 mg/L; in [8], over 50 mg/L; in assay [9] it was under 0.02 mg/L; in assay [10], over 50 mg/L; in [11], over 50 mg/L.
